Data from patent publication US20250340632A1 (OSE IMMUNOTHERAPEUTICS, published 2025).
Like-named read-outs stand apart in the source and are kept apart here. Blank lines part the entries; values can stand above or below the molecule they belong to.

Legend:
[1] = target: human SIRPg protein at the surface of cells (human T lymphocyte Jurkat cell line; T cells in PBMC) (human) (UniProt Q9P1W8); assay: cytofluorometry on Jurkat cells, % of positive cells (not the MFI readout of Table 5)
[2] = target: human SIRPg protein at the surface of cells (human T lymphocyte Jurkat cell line; T cells in PBMC) (human) (UniProt Q9P1W8); assay: cytofluorometry (MFI) on human Jurkat cells, ED50
[3] = target: T1, recombinant human SIRPg protein with His Tag (#11828-H08H, Sino Biological) (human, UniProt Q9P1W8 29-360, biotinylated in the ELISA binding assay (sites not given)); assay: SIRPg binding ELISA, DO 450 nm (legend: immobilized SIRPg-His at 1 µg/ml; method 1.4: captured antibody, biotinylated SIRPg)
T1 construct: Bought protein; also called human SIRPg His; SIRPg-His

[4] = target: T2, human SIRPg protein at the surface of cells (human T lymphocyte Jurkat cell line; T cells in PBMC) (human, UniProt Q9P1W8 29-387); assay: cytofluorometry (MFI) on human Jurkat cells, ED50
T2 construct: whole, on cells; also called SIRPg on Jurkat cells
Description: To measure binding of mouse anti-hSIRPg on human cell lines, cells were first washed in cold-PSE (Phosphate Buffer Saline with 2% of heat-inactivated bovine serum, 2 mM EDTA), blocked for 30 min at room temperature with a mix of 50-fold diluted human Fc-block (#564220, BD Pharmingen) and 20-fold diluted/heat-inactivated human serum (SAB, # H4522-100, Sigma Aldrich) and then incubated for 10 min on ice to slow the cell metabolism. Antibodies in range were incubated for 30 min on ice, and cells were washed with cold-PSE before staining for 30 min on ice with an Alexa 647-labelled goat anti-mouse IgG at 5 μg/ml (#A21236; Fisher Scientific, Illkirch, France). Samples were analyzed on CytoFlex cytofluorometer (Beckman Coulter France, Villepinte).

[5] = target: T1, recombinant human SIRPg protein with …; assay: SIRPg binding ELISA, DO 450 nm (legend: immobilized SIRPg-His at 1 µg/ml; method 1.4: captured antibody, biotinylated SIRPg); remark: listed apart in the source
[6] = target: T3, recombinant human SIRPa protein with His Tag (#11612-H08H, Sino Biological) (human, UniProt P78324 31-370); assay: competition ELISA on immobilized SIRPa-His against biotinylated CD47-Fc at 3 µg/ml, streptavidin-peroxidase detection [lower graph]
T3 construct: Bought protein; also called human SIRPa His; SIRPa-His

[7] = target: T3, recombinant human SIRPa protein with …; assay: ELISA on immobilized SIRPa, ED50
[8] = target: human SIRPa on SIRPa positive U937 human monocyte cell line (human) (UniProt P78324); assay: binding to U937 cells expressing SIRPa, ED50

B2: 3H8 recombinant chimeric anti-SIRPg antibody (antibody, human IgG4 S228P, kappa, V domains shown)
VH: QIQLVQSGPELKKPGETVNISCMASGYSFTNYGMNWVKQAPGKGLKWMGWINTYTGEPTYADDFKGRFAFSLETSASTAYLQINNLKNEDMATYFCARQPYDYVPSFPYWGQGTLVTVSA
VL: DIVMTQSHKFMSTSVGDRVNITCKASQDVSTAVAWYQLKPGQSPKLLIYWASIRHTGVPDRFTGSGSGTDYTLTISSVQAEHLALYYCQQHYSTPWTFGGGTKLEIKR
notes: Mouse VH/VL on human IgG4 (S228P) and human CL kappa
EC50 [4]: 0.083 mg/L

B4: 2H9 recombinant chimeric anti-SIRPg antibody (antibody, human IgG4 S228P, kappa, V domains shown)
VH: DVQLVESGGGLVQPGGSRKLSCAASGFTFSSFGMHWVRQAPEKGLEWVAYISSGSTTIYYADTVKGRFTISRDNPKNTLFLQMTSLRSEDTAMYFCARWTVVTNCFDYWGQGTTLTVSS
VL: QIVLTQSPALMSASPGEKVTMTCSASSSISSMYWYQQKPRSSPKPWIYLTSNLASGVPARFSGSGSGTSYSLTISSMEAEDAATYYCQQWSSNLTFGAGTKLELKR
notes: Mouse VH/VL on human IgG4 (S228P)
EC50 [4]: 0.426 mg/L

B5: 13F7 recombinant chimeric anti-SIRPg antibody (antibody, human IgG4 S228P, kappa, V domains shown)
VH: QVQLQQSGAELVRPGVSVKVSCKGSGYTFTDYAMHWVKQSHPKSLEWIGVIGTYYGDAYYNQNFKGKATMTVDKSSSTAYMELARLTSEDSAIYYCARRAGTSDWFAYWGQGTLVTVSA
VL: NIVLTQSPASLAVSLGQRATISCRASESVDSYGNSFMHWYQQKPGQPPKLLIYRASNLESGIPARFSGSGSRTDFTLTINPVEADDVATYYCQQSNEDPPTFGGGTKLEIKR
notes: as for B2
EC50 [4]: 0.281 mg/L

B6: 11B5 recombinant chimeric anti-SIRPg antibody (antibody, human IgG4 S228P, kappa, V domains shown)
VH: EVQLVESGGDLVKPGGSLKLSCAASGFAFSDYYMYWVRQTPEKRLEWVATISDDGIYTYYPDSVKGRFTISRDNAKNNLFLQMSSLKSEDTAMYYCARGGYRDYYAMDYWGQGTSVTVSS
VL: DIQMTQSPASLSASVGETVTITCRASENIYSYLAWYQQKQGKSPQLLVYNGITLAEGVPSRFSGSGSGTQFSLKINSLQPEDFGDYYCQHHYGSPRTFGGGTTLEIKR
notes: as for B2
EC50 (read off the curve) [3]: ~0.007 mg/L
EC50 (read off the curve) [5]: ~0.006 mg/L
EC50 [4]: 0.195 mg/L

The remaining lines, values ahead:

EC50 (read off the curve) [1]: 0.2 mg/L
EC50 [2]: 6.97 mg/L
Molecule: LSB2.20 antibody (Biolegend, reference 336602)

EC50 (read off the curve) [1]: 0.2 mg/L
EC50 [2]: 3.88 mg/L
Molecule: OX119 antibody (SantaCruz reference sc-53114)

EC50 (read off the curve) [3]: ~0.02 mg/L
EC50 [4]: 0.156 mg/L
B1: 26F10 recombinant chimeric anti-SIRPg antibody (antibody, human IgG4 S228P, kappa, V domains shown)
VH: EVQLQQSGTELVRSGASVKLSCTTSGFNIKDYYMHWVKQRPEQGLEWIGWIDPENGDTEYAPKFQGKATMTADTSSNTAYLQLSSLTSEDTAVYYCNAYDGYYGAMDYWGQGTSVTVSS
VL: DVVMPQTPLSLPVSLGDQASISCRSSQSLVHSNGNTYLHWYLQKPGQSPKLLIYKVSNRFSGVPDRFSGSGSGTDFTLKISRVEAEDLGVYFCSQNTHVPLTFGAGTKLELKR
notes: as for B2

EC50 (read off the curve) [3]: ~0.01 mg/L
EC50 (read off the curve) [5]: ~0.006 mg/L
IC50 (read off the curve) [6]: ~0.7 mg/L
EC50 [7]: 0.00469 mg/L
EC50 [8]: 0.0719 mg/L
B3: Kwar23 antibody (antibody, V domains shown)
VH: EVQLQQSGAELVKPGASVKLSCTASGFNIKDYYIHWVQQRTEQGLEWIGRIDPEDGETKYAPKFQDKATITADTSSNTAYLHLSSLTSEDTAVYYCARWGAYWGQGTLVTVSS
VL: QIVLTQSPAIMSASPGEKVTLTCSASSSVSSSYLYWYQQKPGSSPKLWIYSTSNLASGVPARFSGSGSGTSYSLTISSMEAEDAASYFCHQWSSYPRTFGAGTKLELK
